± gives the half width of the 95% confidence interval.
Assay: folding stability dG unfold (combined trypsin and chymotrypsin); higher = more stable
Procedure, shortened: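 Designed mini-proteins with no cysteine and under 80 residues were kept only if AlphaFold2 dimer inter-PAE was above 15. In a PA-tagged cDNA display construct, they were digested with trypsin and chymotrypsin and then sequenced. K50 was inferred by Bayesian fitting of counts, and unfolding free energy was derived per protease or combined against a sequence-predicted unfolded-state K50 and a shared folded-state K50.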

Sequence	folding stability dG unfold [kcal/mol]
SAGGSAGGSAGDVEVTEVTDANGNLTLTVKAKPATVTPNETVTVTLTVVNDDGETKTFELSAGGSAGGSAGG [r17_293_TrROS_Hall]	-0.493 ± 0.41
SNLKIKWPNGHEIPIQKNNENVRIKFPGNGQEHPIPKEALEDNTPEEILDHLRDHFRQHGMPPMPVEIEKSA [r9_1211_TrROS]	0.192 ± 0.38
SAGGSAGGSAGGMTRTITVKSPGDAEAVVEELKPLGWEVKEIKKDTANPNVYTVTVEKPSAGGSAGGSAGGS [r10_104_JUSTAS]	0.198 ± 0.25
SAGGSAGGSAGGGMPYPIKTEVEIKKNGPNISTTETVYRPDGTKIETKKYKIPKKELKKKSAGGSAGGSAGG [r7_602_JUSTAS]	< -1
SAGGSAGGSAGGWTLEELKNAPPGEPVTITIPMYSPNGDKKQPMRIRITPDDGEIEIEMSAGGSAGGSAGGS [r10_394_TrROS]	0.406 ± 0.15
SAGGSAGGSRWRVSFEGPNGGTQEHDIPVPPGEPVDLDEILDEFKEAHPGGPPRPIKIERPDPSAGGSAGGS [r12_262_TrROS]	-0.651 ± 0.33
SAGGSAGGSAGPRVKFRFPGQEHTIPPGRRVYFGNGKKFDPGEPLDDIPPDNITPVEIEPSAGGSAGGSAGG [r17_511_TrROS]	-0.609 ± 0.15
SAGGSAGGSMPEKKFKAEVVEEIEDPKTGKKFYFLKDTKQIFVENKDGSRTAITIDEDKLEIVSAGGSAGGS [r12_420_TrROS_Hall]	0.0252 ± 0.15
SAGGSAGGSAGGSEEKPLVIPIPAHPDIPAEVVRKAVEPLTGVPIEAVLGDEDTLLVVGSAGGSAGGSAGGS [r4_469_TrMRF]	0.187 ± 0.077
SAGGSAGGSPWQVTHETVTLPEYDPSSDKPIREVTVTVTTETDPTTGATTVSLNLPSDFLRELRSAGGSAGG [r6_206_JUSTAS]	-0.123 ± 0.22
SAGGSAGGSAGAEPLVREFEGRRIVLYREEDPGTARIEVFVGDKPYTVPLEYVPEELLLDSAGGSAGGSAGG [r11_152_TrMRF]	0.325 ± 0.053
SAGGSAGGSPVRPRTGTVYDPETGARVDVLEYEFPLPDGTPVTVTEVVVTDGDTRTTATLVDPSAGGSAGGS [r12_619_TrMRF]	-0.263 ± 0.073
SAGGSAGGSAGGGSMTKIGNGYLRYTLPGDTVVIYDPSTGTTQTLPVSNPVPVELPPNIPSAGGSAGGSAGG [r7_299_JUSTAS]	0.208 ± 0.057
SAGGGENAPKPIVEPKLVSTFLIDVEPDTYTPEEIAELFKEATGYEIEEVEVEELPDDNTVLVTVVAGSAGG [r13_457_TrMRF]	0.0888 ± 0.22
SAGGSAGGSAGGMLVTETKPLPTPRTVATVVLLSTEEAPLPSGVLVRRETTEVKLVELISAGGSAGGSAGGS [r10_718_JUSTAS]	< -1
SAGGSAGGSAPKFDLRPEVFPLEDDSFLFVSRLLDPDKRLLTLVKVPPNGGLELGDVLLLDSAGGSAGGSAG [r3_165_TrMRF]	-0.829 ± 0.33
SAGGEIKIVVSAEELLRKEGKLSEEQRKKLEEALEEAKKLAEEGKEVKVEVEVVPPKPELKPEDKEKKSAGG [r13_731_TrROS_Hall]	< -1
SAGMTITIEDLDNGEKVTIEKNPEDPNMVQIEYPNGPEQTFPADEIAEELGLPPSLLQNGIRIKKIKISSAG [r5_156_TrROS]	< -1
SAGGSAAPPFKVEIETEALPGPVVTRTIKVEPGSTVTIYDPGRDEALTFPVAPGTELVFTFDGTDASAGGSA [r15_224_TrMRF]	0.342 ± 0.1
SAGGSAGGSAGGMSVSPEGYSVSVTGSGPRGVPVPASNAAEQRAALAAQPDVSSVTVTASSAGGSAGGSAGG [r11_587_JUSTAS]	-0.883 ± 0.18
SAGGNRIPIPVKEIANNLNEEGWEIDEVEIYNPDDGEPKGTIPPGDPIEIPPNAPNMTIKPKIKPRKSAGGS [r8_243_TrROS]	-0.169 ± 0.13
SAGGSAMTTRATATPQPDGTVTVTVEAPGFSRTFTAPPGDLAASLAAVERELPPGEPRVVTSAAAGSAGGSA [r15_925_JUSTAS]	-0.233 ± 0.067
SAGGPNMRTVTIEIPPENLKKDPDGEPYSAQDIAKHIAKHLPPDNVEIEIDKIDPDNGWFKVTIIVPSAGGS [r16_284_TrROS]	-0.514 ± 0.44
SAGSMTSFPLTLPGGEKISSISVTASPGTEYTTNATLSKDKSKTVTINFDIKPGGEKVVKNISVTTPEESAG [r14_705_JUSTAS]	-0.0181 ± 0.1

Sequence	folding stability dG unfold [kcal/mol]
SAGGEELVIEFDSLEDALSAIYPRPDLDKVTLVVPGEGVPVVIPVTVTPPDLGVLGRSAEDRPVPLLGSAGG [r13_183_TrMRF]	< -1
SAGGSAGGSGEPRTVLVEVLYDDKPVLIPVTADSEEALPEVARAAIEPLAEKYPHVEIPLPTESAGGSAGGS [r12_230_TrMRF]	-0.66 ± 0.52
SAGGMKVTPLGTEPRPDGTTTTTYLSTLPNGTPVTTTTTTSTIPPPPVPPFSPEEVAAAAARRAAAASAGGS [r16_8_JUSTAS]	< -1
SVPVTDETLYPDPSNALPISLVSQLGPDGSSVTTSITLPGRSMTQSVDPSTGRVTGNYPGTGLSSTVTSVPS [r1_125_JUSTAS]	0.0698 ± 0.11
SAGGMPLSTESFVQESSGDGTPFTTTKTTYRDVNGNPLVTPVSTVDPVAGTTTTTVTVDGTPVTTTTPSAGG [r13_948_JUSTAS]	-0.701 ± 0.17
SAGGSAGGSAGGKTYYVTGKLYLKDKPRVIEVKLPYPSELEEEAPERVKKLAEELAKEESAGGSAGGSAGGS [r10_313_TrMRF]	< -1
SAGGSAMTKKTVVTIPLPPGAEDLSPEEVERRVRDELAAEPARPDVTVEVERLPPEPVVRVTITEASAGGSA [r15_1029_JUSTAS]	-0.307 ± 0.2
SAGGSAGGSAGGSFTLTTPGRTETVPAGSEVYFGNGIKLHPDLPLADIPPELLTPIGTRPSAGGSAGGSAGG [r17_511_TrMRF]	-0.229 ± 0.24
SAGGGMPLEELKDIPENLPPGARVRLRFPETGEEGVYVLREDGGYTVEVPGGVVEAPEDTEVTEIVPSAGGS [r8_162_TrMRF]	-0.192 ± 0.17
SAGGSAKIEIEWNPENGMVRVKAEYPNDGKKKEHTFNPGDSPKQLADDINQEFKKPVEIDEIEWYPSAGGSA [r15_544_TrROS]	0.153 ± 0.44
SAGGSAGGSAGGAADAKVRLVLRTRTFDAVPGEERELPGDSWVYEVGDKAVALELLADPVSAGGSAGGSAGG [r7_506_TrMRF]	0.21 ± 0.083
SAGGSASMKTTTVTLPLDPAQLAEAIAALREAVAPDEAAEVTFVHPHAPTSLTVTISRSDVTLNAASAGGSA [r15_257_JUSTAS]	-0.17 ± 0.11
SAGVRKIPIESADDLRDEIDKSPGPVIIRNKGNKKYHRIDPDDLNNFAKNGAPIEIMPPDEMPPEMRKQSAG [r5_677_TrROS]	-0.332 ± 0.17
SAGGSAGGSAGGMIDIPISPEIAENVPPGATVEVEILRDDGRIERLKVKVEDFEPVLPGGSAGGSAGGSAGG [r7_732_TrMRF]	0.0628 ± 0.26
SAGGSAGGSAGGSHPVKITEITEFNPGDNRMRIDIKHPNGGKKEIVVPGMPVEEILNAISAGGSAGGSAGGS [r4_357_TrROS]	-0.635 ± 0.21
SAGGSAGGSAGKKKIHVHQYPDGNYHIRVPNGKSYHFPPEDADELVEELGIDEVEIHPMDSAGGSAGGSAGG [r11_312_TrROS]	-0.407 ± 0.16
SAGGDYDYEKDPNKYRVKERDKNGKILGEKEVEVKPPPIVIDGLPEEDLQEFQDKFPNIPITINPGAISAGG [r13_235_TrROS]	< -1
SAGGKITIEKKEDGTYTITINGKKFTFKFKPGAKVEIKIEKKKDGTYTITITVTNKDGSKKTFKIKLSAGGS [r16_231_TrROS_Hall]	4.87 ± 0.47
SAGGSAGGSAGGPWKIKEIETVPEGGKERMTIKIEDDNGKPKKPVHMPPDDLDNLPPDLISAGGSAGGSAGG [r7_263_TrROS]	< -1
SAGGSAEKPPIKIEIDTETDPGNGMYEVSIPIRQKNGKPKGTIDIPFNTPQQAEDWLEDLGFDKIESAGGSA [r15_127_TrROS]	< -1
SSSMTIAKTEVETYPDGVIRTKETFPGSDTYREFDIPVDPSTGKMPVKSTLYDPKTGKSIETTSEIELLESA [r9_825_JUSTAS]	-0.884 ± 0.64
SAGGEDFTIRTRSPNGEEQKFPFKVDNVEIEPENNHYSIHIKDGKKLTIPPGGIDDIEPDDIKDWIKDSAGG [r13_925_TrROS]	-0.373 ± 0.21
SAGGSAEPTGPPDVEVKRSTSVEGGLTLTPVTYTSPDNTETLVITYTTDPAGNLSSTTATVPPDLVSAGGSA [r15_986_JUSTAS]	-0.00361 ± 0.28
